Experimental data from patent US9365899.

Biological target: yeast Fab1/PIKfyve kinase (yeast) (UniProt P34756)
Experiment: cell-based or functional assay

Chain of UniProt P34756 (P34756 2-2278 limits assumed): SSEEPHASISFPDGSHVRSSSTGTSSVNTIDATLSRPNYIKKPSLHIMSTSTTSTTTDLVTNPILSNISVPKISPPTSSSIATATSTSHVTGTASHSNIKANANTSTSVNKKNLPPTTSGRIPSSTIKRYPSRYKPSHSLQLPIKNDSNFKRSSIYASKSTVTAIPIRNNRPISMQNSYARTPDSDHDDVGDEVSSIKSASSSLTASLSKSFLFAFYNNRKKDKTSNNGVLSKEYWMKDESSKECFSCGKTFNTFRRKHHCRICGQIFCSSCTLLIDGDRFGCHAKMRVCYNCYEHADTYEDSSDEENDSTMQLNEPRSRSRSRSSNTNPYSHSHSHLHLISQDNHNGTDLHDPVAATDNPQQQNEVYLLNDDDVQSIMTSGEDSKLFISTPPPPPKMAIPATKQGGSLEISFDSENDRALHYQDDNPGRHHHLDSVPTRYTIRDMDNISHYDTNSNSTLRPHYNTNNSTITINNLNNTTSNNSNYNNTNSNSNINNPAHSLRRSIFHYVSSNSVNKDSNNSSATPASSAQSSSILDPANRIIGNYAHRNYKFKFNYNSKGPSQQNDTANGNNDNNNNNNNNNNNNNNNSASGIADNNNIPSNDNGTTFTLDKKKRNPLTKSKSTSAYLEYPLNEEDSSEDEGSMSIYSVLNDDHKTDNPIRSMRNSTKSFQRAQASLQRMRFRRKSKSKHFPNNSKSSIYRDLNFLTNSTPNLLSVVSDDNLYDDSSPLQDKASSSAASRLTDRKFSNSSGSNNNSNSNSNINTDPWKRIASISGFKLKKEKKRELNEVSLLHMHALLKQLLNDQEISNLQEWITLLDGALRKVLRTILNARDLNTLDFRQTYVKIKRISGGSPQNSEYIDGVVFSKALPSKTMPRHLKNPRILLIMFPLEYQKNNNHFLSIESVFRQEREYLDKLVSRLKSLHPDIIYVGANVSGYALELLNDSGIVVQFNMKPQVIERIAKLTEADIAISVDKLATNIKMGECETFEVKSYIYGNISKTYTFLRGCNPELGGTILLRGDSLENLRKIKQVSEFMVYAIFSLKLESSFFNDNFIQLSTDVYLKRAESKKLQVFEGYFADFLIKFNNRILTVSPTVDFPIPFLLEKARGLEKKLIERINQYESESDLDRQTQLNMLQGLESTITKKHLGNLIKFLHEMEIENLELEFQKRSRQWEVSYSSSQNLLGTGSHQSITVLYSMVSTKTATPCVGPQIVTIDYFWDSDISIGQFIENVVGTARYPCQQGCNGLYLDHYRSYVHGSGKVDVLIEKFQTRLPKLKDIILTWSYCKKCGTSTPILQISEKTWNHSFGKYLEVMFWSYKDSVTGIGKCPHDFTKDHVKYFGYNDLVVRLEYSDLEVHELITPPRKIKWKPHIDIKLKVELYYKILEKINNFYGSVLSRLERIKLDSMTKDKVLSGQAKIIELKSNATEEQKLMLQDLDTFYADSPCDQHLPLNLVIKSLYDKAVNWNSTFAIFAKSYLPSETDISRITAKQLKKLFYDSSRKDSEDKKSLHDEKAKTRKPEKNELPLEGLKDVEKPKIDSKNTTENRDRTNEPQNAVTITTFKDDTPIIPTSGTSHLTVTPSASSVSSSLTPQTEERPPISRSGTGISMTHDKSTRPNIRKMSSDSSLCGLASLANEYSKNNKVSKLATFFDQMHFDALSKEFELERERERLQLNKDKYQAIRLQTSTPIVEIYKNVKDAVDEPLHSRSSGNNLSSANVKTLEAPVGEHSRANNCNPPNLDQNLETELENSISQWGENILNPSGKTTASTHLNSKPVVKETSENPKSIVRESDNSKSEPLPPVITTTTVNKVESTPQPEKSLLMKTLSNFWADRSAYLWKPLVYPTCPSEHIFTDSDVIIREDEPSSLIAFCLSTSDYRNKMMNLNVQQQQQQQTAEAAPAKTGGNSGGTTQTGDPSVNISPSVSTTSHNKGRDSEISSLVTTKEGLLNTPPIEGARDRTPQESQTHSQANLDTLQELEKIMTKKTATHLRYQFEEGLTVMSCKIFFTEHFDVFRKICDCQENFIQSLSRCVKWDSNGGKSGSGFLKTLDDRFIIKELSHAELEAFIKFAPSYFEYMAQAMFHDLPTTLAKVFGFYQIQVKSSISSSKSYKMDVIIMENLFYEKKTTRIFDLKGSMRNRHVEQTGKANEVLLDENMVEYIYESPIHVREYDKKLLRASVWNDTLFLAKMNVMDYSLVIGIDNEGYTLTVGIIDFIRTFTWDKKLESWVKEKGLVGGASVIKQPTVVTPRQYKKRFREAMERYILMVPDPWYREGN

Substance | increase in intracellular PI(3,5)P2 concentration after hyperosmotic shock [fold]
yeast FIG4 protein, wildtype (from UniProt P42837 1-879) | 10
yeast FIG4 protein with the Ile>Thr mutation corresponding to human I41T (from UniProt P42837 1-879) (enzyme) | 4
